T1: amyloid β(3-11)
T1 chain: EFRHDSGYE


Target: T1, amyloid β(3-11)

Row | Protein | conversion of Aβ(3-11) into pGlu-Aβ(3-11), Maldi-Tof mass spectrometry
1 | human QC (glutaminyl cyclase, QPCT) (protein) VSPSASAWPEEKNYHQPAILNSSALRQIAEGTSISEMWQNDLQPLLIERYPGSPGSYAARQHIMQRIQRLQADWVLEIDTFLSQTPYGYRSFSNIISTLNPTAKRHLVLACHYDSKYFSHWNNRVFVGATDSAVPCAMMLELARALDKKLLSLKTVSDSKPDLSLQLIFFDGEEAFLHWSPQDSLYGSRHLAAKMASTPHPPGARGTSQLHGMDLLVLLDLIGAPNPTFPNFFPNSARWFERLQAIEHELHELGLLKDHSLEGRYFQNYSYGGVIQDDHIPFLRRGVPVLHLIPSPFPEVWHTMDDNEENLDESTIDNLNKILQVFVLEYLHL | human QC and human isoQC (YSShisoQCI55NC351A C-His) catalyze the conversion of Aβ(3-11) into pGlu-Aβ(3-11)
2 | YSShisoQCI55NC351A C-His (human isoQC expressed in P. pastoris) (protein) FYTIWSGWHRRTEELPLGRELRVPLNGSLPEARLRRVVGQLDPQRLWSTYLRPLLVVRTPGSPGNLQVRKFLEATLRSLTAGWHVELDPFTASTPLGPVDFGNVVATLDPRAARHLTLACHYDSKLFPPGSTPFVGATDSAVPCALLLELAQALDLELSRAKKQAAPVTLQLLFLDGEEALKEWGPKDSLYGSRHLAQLMESIPHSPGPTRIQAIELFMLLDLLGAPNPTFYSHFPRTVRWFHRLRSIEKRLHRLNLLQSHPQEVMYFQPGEPFGSVEDDHIPFLRRGVPVLHLISTPFPAVWHTPADTEVNLHPPTVHNLARILAVFLAEYLGLHHHHHH | human QC and human isoQC (YSShisoQCI55NC351A C-His) catalyze the conversion of Aβ(3-11) into pGlu-Aβ(3-11); the conversion of N-terminal glutamic acid by hisoQC is much slower compared with hQC

From patent US20080249083
